This note sets out measurements from patent publication US6027877, “Use of immobilized mismatch binding protein for detection of mutations and polymorphisms, purification of amplified DNA samples and allele identification” (Gene Check, Inc.).

The target of data set [1] is T1, MutS (Escherichia coli, UniProt P23909 P23909:1-853).
T1 sequence: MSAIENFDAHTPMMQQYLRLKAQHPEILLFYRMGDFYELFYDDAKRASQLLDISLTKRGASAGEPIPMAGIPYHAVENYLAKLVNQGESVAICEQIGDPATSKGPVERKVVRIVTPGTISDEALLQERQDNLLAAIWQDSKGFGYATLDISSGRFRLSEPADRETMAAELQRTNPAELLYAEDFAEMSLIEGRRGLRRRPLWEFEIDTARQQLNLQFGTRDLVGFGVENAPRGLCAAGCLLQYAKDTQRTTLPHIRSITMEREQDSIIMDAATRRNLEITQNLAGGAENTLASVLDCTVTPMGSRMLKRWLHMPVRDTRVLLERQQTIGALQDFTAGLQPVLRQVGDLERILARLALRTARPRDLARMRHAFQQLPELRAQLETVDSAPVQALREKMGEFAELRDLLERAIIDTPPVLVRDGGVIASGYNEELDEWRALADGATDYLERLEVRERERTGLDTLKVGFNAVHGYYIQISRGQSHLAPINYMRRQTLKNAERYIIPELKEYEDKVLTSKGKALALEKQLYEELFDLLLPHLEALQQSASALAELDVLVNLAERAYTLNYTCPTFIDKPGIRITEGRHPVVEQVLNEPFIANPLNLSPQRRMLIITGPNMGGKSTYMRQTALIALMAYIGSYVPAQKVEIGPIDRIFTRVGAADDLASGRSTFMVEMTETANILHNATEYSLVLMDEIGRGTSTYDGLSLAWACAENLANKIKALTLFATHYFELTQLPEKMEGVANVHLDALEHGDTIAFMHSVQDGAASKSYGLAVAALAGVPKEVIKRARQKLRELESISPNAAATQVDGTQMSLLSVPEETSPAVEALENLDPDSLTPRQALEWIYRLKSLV
Nature of the data set: competition; competition clearly visible with 50 ng against 5 ng biotinylated mismatch 30-mer. As to conditions: tags: adsorbed on nitrocellulose (0.45 um, Schleicher & Schuell); single G:T mismatch. The method, then:
(§1) Purified MBP, E. coli MutS, at a concentration of 0.5 μg/10 μl reaction buffer was spotted on the nitrocellulose paper in each well. The wells were incubated at room temperature, and the remaining liquid was pulled through with vacuum. Each well was washed twice with 100 μl reaction buffer by adding the solution to the well and then pouring it out. After the second wash, the remaining solution was pulled through the vacuum.
(§2) Biotinylated oligonucleotides, in 20 μl reaction buffer containing 1% BSA, were added to each well. After 30 minutes at room temperature, remaining liquid was poured out. Each well was washed with 5×100 μl reaction buffer by adding the solution to the well and then pouring it out. After the fifth wash, the remaining solution was pulled through by vacuum.
In competition studies, the DNA binding was as described above, except that a constant amount of biotinylated mismatch-containing oligonucleotide (5 ng) was mixed with varying amounts of unlabeled DNA, with or without a mismatch, and added to the wells.

Data set [2] concerns the target T1, MutS. Nature of the data set: no detectable binding even with 200 ng; same buffer, 5 mM MgCl2, room temperature. As to conditions: tags: adsorbed on nitrocellulose (0.45 um, Schleicher & Schuell); perfect duplex. As to the method:
as §1, §2
(§3) The presence of biotin was detected by its binding of Streptavidin. A 100 μl volume of Streptavidin-conjugated HRP (Pierce Chemicals) at a concentration of […] in reaction buffer +1% BSA was added to each well. After 2 hours at room temperature, the solution was poured out and each well washed with 5×100 μl reaction buffer by adding the solution and then pouring it out. After the fifth wash, the remaining solution was pulled through with vacuum.

Data set [3] concerns the target T1, MutS. Nature of the data set: dot blot with immobilized MutS, streptavidin-HRP ECL; as little as 0.2 ng detected; 20 mM Tris pH 7.6, 5 mM MgCl2, 1% BSA, room temperature. Conditions: tags: adsorbed on nitrocellulose (0.45 um, Schleicher & Schuell); single G:T mismatch. As to the method: as §1, §2, §3

B1: unlabeled beta-globin 30-mer G:T mismatch duplex (dsDNA)
DNA 1: GCACCTGACTCCTGGGGAGAAGTCTGCCGT
DNA 2: ACGGCAGACTTCTCCTCAGGAGTCAGGTGC
For the molecule B1, the binding result in data set [1] is reported as “binds”.

B2: beta-globin 30-mer fully matched duplex (dsDNA)
DNA 1: GCACCTGACTCCTGGGGAGAAGTCTGCCGT
DNA 2: ACGGCAGACTTCTCCCCAGGAGTCAGGTGC
B2: the binding result in data set [2] was “no binding”.

B3: beta-globin 30-mer G:T mismatch duplex (dsDNA)
DNA 1: GCACCTGACTCCTGGGGAGAAGTCTGCCGT
DNA 2: ACGGCAGACTTCTCCTCAGGAGTCAGGTGC
Regarding B3, the binding result in data set [3] is “binds”.
